According to patent US8796227B2, “Peptides for inhibiting chemokine binding to chemokine receptors” (Biokine Therapeutics Ltd., priority 2002, dated 2014):
Entries after “also recorded” stand apart in the source; their conditions may differ.

What was measured:
Human MCP-1 = target: T1, Human MCP-1 (Homo sapiens, UniProt P13500); experiment: ELISA analysis of the synthetic chemokine-binding peptide; conditions: chemokine-coated wells, specific binding = at least two fold of binding to control proteins (BSA, Actin, Fibronectin)
T1 construct: purchased PeproTech, Inc. 300-04
Procedure: (§1) Recombinant chemokines were ordered from PeproTech, Inc. (Rocky Hill, N.J., USA). Human SDF-1α (Cat. No. 300-28A), human MIG (Cat. No. 300-26) and human IL-8, (72 amino acids) (Cat. No. 200-08M), belong to the alpha-chemokines (C-X-C) family. Human MCP-1 (MCAF) (Cat. No. 300-04) and human Eotaxin (Cat No. 300-21) belong to the beta-chemokines (C-C family). All chemokines were prepared according to the company recommendations.
(§2) Peptides were synthesized in the Weizmann Institute of Science, Rehovot, Israel, in order to perform tests for characterization of their influence on the biological activity of the chemokines. The format of the various synthesized peptides was as follows: The cyclic peptides, ACX7CGGGSK-biotin-G and the linear peptides, X12GGGSK-biotin-G. The peptides were biotinylated on their C-termini; the biotin will serve as a detector during the following experiments. Each synthetic peptide was dissolved to concentration of 1 mg/ml (˜0.6 mM) in 4% DMSO (Dimethyl Sulphoxide, Sigma, Cat. # D-2650).
(§3) NUNC-Immuno™ MaxiSorp™ plates (Cat. No. 4-42404) were coated with the appropriate chemokine (0.1 ml/well, 0.1-1.0 μg/ml in 0.1 M NaHCO3, pH 8.6), overnight at 4° C. The plates were then blocked with 0.2 ml/well of blocking buffer (5 mg/ml BSA in 0.1 NaHCO3). Control wells were treated with blocking buffer alone, with no addition of target protein (chemokine). The plates were washed 6 times with PBST (0.1% Tween 20 in PBS), followed by incubation for 45 minutes at room temperature with 10-fold serial dilutions of individual synthetic peptides (10pg-10 μg) with 1% BSA (PBST-BSA)/well. After the plates were washed 6 times with PBST, the bound peptides were probed by HRP-SA Conjugate, diluted 1:10,000 to 1:20,000 in PBST-BSA, 0.1 ml/well for 45 minutes at room temperature. The target-bound synthetic peptides probed with HRP-SA were quantified by DAKO TMB one-step substrate system, followed by the addition of stop solution, HCl—H2SO4 mixture (0.1 ml/well) (1N HCl, 3N H2SO4). The results were analyzed by ELISA reader at OD450.
(§4) The present invention identifies chemokine-binding peptides with biological activity. The binding specificities of the various peptides to the chemokines were determined by screening against BSA, Actin and Fibronectin-coated wells as negative controls in parallel experiments. The binding level of the peptides to the various chemokines, which reached at least two fold of the binding level to the control proteins, was considered a specific binding.
(§5) The specific binding of the peptides was detected by screening methodology, using ELISA, as described in “Materials and Methods”, employing microplates coated with the various chemokines to be checked. The binding specificities of the various peptides to the various chemokines were determined by screening against BSA, Actin and Fibronectin-coated wells as negative controls in parallel experiments.
(§6) Again, the specificity of the binding, either to one chemokine or more, was established by comparing binding level with the control binding level to non-related proteins, (shown in the Figure as a broken line).

Eotaxin [1] = target: T2, Eotaxin (Homo sapiens, UniProt P51671); experiment: as above; conditions: chemokine-coated wells, specific binding = at least two fold of binding to control proteins (BSA, Actin, Fibronectin)
T2 construct: purchased PeproTech, Inc. 300-21
Procedure: as §1, §2, §3, §4, §5, §6

human IL-8 = target: T3, human IL-8 (Homo sapiens, UniProt P10145); experiment: as above; conditions: chemokine-coated wells, specific binding = at least two fold of binding to control proteins (BSA, Actin, Fibronectin)
T3 construct: human IL-8, (72 amino acids) (Cat. No. 200-08M); purchased PeproTech, Inc. 200-08M
T3 sequence (P10145 28-99 limits assumed): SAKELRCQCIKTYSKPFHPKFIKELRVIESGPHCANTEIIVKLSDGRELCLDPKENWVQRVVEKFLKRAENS
Procedure: as §1, §2, §3, §4, §5, §6

IL-8 = target: T4, IL-8 (Homo sapiens, UniProt P10145); experiment: Biovalidation: laminar flow assay, chemokine and VCAM-1 activated adhesion of T cells; assay type: cell-based; design: key to Level of Antagonistic Effect / Level of Effect: + 20%; ++ 50%; +++ 100%; − No effect; conditions: VCAM-1; for Level of Antagonistic Effect: Chemokine checked IL-8, T cells, peptide 10 μg/ml; for Abolishment of the activity of IL-8: T cell adhesion under flow
T4 construct: human IL-8, (72 amino acids) (Cat. No. 200-08M); purchased PeproTech, Inc. 200-08M
T4 sequence (P10145 28-99): T3 sequence (P10145 28-99 limits assumed)

Eotaxin [2] = target: T2, Eotaxin; experiment: as above; assay type: cell-based; conditions: VCAM-1
SDF-1α = target: T5, SDF-1α (Homo sapiens, UniProt P48061); experiment: ELISA analysis of the synthetic chemokine-binding peptide; conditions: chemokine-coated wells, specific binding = at least two fold of binding to control proteins (BSA, Actin, Fibronectin)
T5 construct: purchased PeproTech, Inc. 300-28A
Procedure: as §1, §2, §3, §4, §5, §6

[3] = system: chemokines MCP-1, SDF-1α, MIG, Eotaxin and IL-8; experiment: ELISA binding to the panel of chemokines (chemokine not singled out); design: species or system human; conditions: five chemokines tested, control binding level = one fold
Procedure: as §1, §2, §3
The present invention identifies chemokine-binding peptides with biological activity. The binding specificities of the various peptides to the chemokines were determined by screening against BSA, Actin and Fibronectin-coated wells as negative controls in parallel experiments. […]
The specific binding of the peptides was detected by screening methodology, using ELISA, as described in “Materials and Methods”, employing microplates coated with the various chemokines to be checked. The binding specificities of the various peptides to the various chemokines were determined by screening against BSA, Actin and Fibronectin-coated wells as negative controls in parallel experiments. […]

MIG [4] = target: T6, MIG (Homo sapiens, UniProt Q07325); experiment: Biovalidation: laminar flow assay, chemokine and VCAM-1 activated adhesion of T cells; assay type: cell-based; conditions: for Level of Antagonistic Effect: Chemokine checked MIG, T cells, peptide 10 μg/ml; for Level of Antagonistic Effect / Reduction of the activity of MIG: VCAM-1; for Reduction of the activity of MIG: T cell adhesion under flow
T6 construct: purchased PeproTech, Inc. 300-26
T6 sequence (Q07325 23-125): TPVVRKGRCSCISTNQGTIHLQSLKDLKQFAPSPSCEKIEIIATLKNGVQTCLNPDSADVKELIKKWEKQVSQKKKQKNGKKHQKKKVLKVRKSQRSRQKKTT
Procedure: 50 ml blood was added to 10 ml Dextran (Dextran T-500 6% w/v) in PBS (phosphate buffer saline), and 7 ml citrate buffer (25 g citrate, 8 g citric acid in 500 ml PBS). The solution was incubated for 30 min at 25° C. 10 ml Ficoll 1077 (Sigma) was added to the bottom of the tube. The tube was then centrifuged at 2,000 rpm for 30 min, at 18° C., (with the brake mode of the centrifuge off). The interphase was collected and washed twice with 8 ml PBS-5% FCS (fetal calf serum), followed by centrifugation at 1,400 rpm, for 5 min, at 18° C. The cells were re-suspended in PBS-5% FCS at a concentration less than 10^8/ml. 2 ml of the cell solution were applied and incubated for 45 min at 25° C. on a Perspex Nylon wool column, which was pre-soaked with PBS-5% FCS. Each column was washed with 8 ml PBS-5% FCS and the cells (T-cells and erythrocytes) were eluted by 50 ml of 5 mM EDTA in PBS. A red pellet was obtained by centrifugation at 1,400 rpm, at 4° C., for 5 min, with the brake on. In order to perform lysis of the erythrocytes, the red pellet was re-suspended in 5 ml lysis-buffer (155 mM NH4Cl, 10 mM KHCO3, 0.1 mM EDTA, X0.1PBS) for 4 min, followed by immediate addition of 50 ml of PBS-EDTA.
Following centrifugation at 1,400 rpm, at 4° C., for 5 min with brake on, the pellet was washed again with 50 ml PBS-EDTA and re-centrifuged under the same conditions. A white pellet was obtained and re-suspended in RPMI/10% FCS/L-glutamine/sodium pyruvate/antibiotics at a concentration of 3^X10^6 cells/ml. The cells were incubated for 2 h at 37° C., followed by collection of the non-adherent cells. The cells were ready for use in experiments after overnight incubation at 37° C. […]
Laminar flow assays were performed as follows. Polystyrene plates (B.D) were coated with soluble VCAM-1 at 10 μg/ml in the presence of 2 μg/ml HSA carrier. The plates were washed three times with PBS and blocked with HSA (20 μg/ml in PBS) for 2 hrs at room temperature. Alternatively, washed plates were coated with 10 μg/ml MIG chemokine in PBS for 30 min at room temperature, before being blocked with HSA. The plates were assembled as the lower wall of a parallel wall flow chamber and mounted on the stage of an inverted microscope. The peptide, as described previously, (10 μg/ml) was allowed to settle on the substrate coated chamber wall for 10 min, at 37° C. and then washed. T cells (5×10^6/ml, purity >98%) were suspended in binding buffer, perfused into the chamber and allowed to settle on the substrate coated chamber wall for 1 min, at 37° C. Flow was initiated and increased in 2 to 2.5 fold increments every 5 sec. generating controlled shear stresses on the wall. Cells were visualized in a 20× objective of an inverted phase-contrast Diaphot Microscope (Nikon, Japan) and photographed with a long integration LIS-700 CCD video camera (Applitech; Holon, Israel), connected to a video recorder (AG-6730 S-VHS, Panasonic, Japan). The number of adherent cells resisting detachment by the elevated shear forces was determined after each interval by analysis of videotaped cell images, and was expressed as the percent of originally settled cells. All adhesion experiments were performed at least three times on multiple test fields.

MIG [5] = target: T6, MIG; experiment: ELISA analysis of the synthetic chemokine-binding peptide; conditions: chemokine-coated wells, specific binding = at least two fold of binding to control proteins (BSA, Actin, Fibronectin)
Procedure: as §1, §2, §3, §4, §5, §6

T1 sequence (P13500 24-99): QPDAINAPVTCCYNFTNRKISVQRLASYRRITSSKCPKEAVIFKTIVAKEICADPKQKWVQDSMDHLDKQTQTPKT
T5 sequence (P48061 22-89 limits assumed): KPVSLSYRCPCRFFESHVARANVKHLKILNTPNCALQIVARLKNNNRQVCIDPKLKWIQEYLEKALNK

| Bound chemokines (at least): MCP-1 (Human MCP-1) | Bound chemokines (at least): Eotaxin (Eotaxin [1]) | Bound chemokines (at least): IL-8 (human IL-8) | Sequence | further results |
| --- | --- | --- | --- | --- |
| MCP-1 |  |  | LDYPIPQTVLHH [BKT-P46] |  |
|  | bind and found to bind Eotaxin |  | LGFDPTSTRFYT [BKT-P22] |  |
|  |  | IL-8 | LLADTTHHRPWP [BKT-P37] |  |
|  | Eotaxin, | IL-8 | SAGHIHEAHRPL [BKT-P39] | Level of Antagonistic Effect (IL-8): −; Abolishment of the activity of IL-8 (IL-8): no effect; Level of Antagonistic Effect (Eotaxin [2]; Chemokine checked Eotaxin, T cells, peptide 10 μg/ml): +++ (+++ 100%); Blocking of the activity of Eotaxin (Eotaxin [2]; T cell adhesion under flow): 100%; Bound chemokines (at least): SDF-1α (SDF-1α): SDF-1α |
|  |  | IL-8 | SAISDHRAHRSH [BKT-P40] |  |
|  | Eotaxin |  | SFWHHHSPRSPL [BKT-P31] |  |
| MCP-1 |  | IL-8 | SIFAHQTPTHKN [BKT-P3] | Binding to the various chemokines [3]: binds to all five chemokines tested; Level of Antagonistic Effect (MIG [4]): +++ (+++ 100%); Percentage of arrested cells (MIG [4]; MIG plus peptide (FIG. 4), MIG alone about 25-30%, control = VCAM-1 alone): dramatically reduced; Reduction of the activity of MIG (MIG [4]): complete arrest; Level of Antagonistic Effect (IL-8): +++ (+++ 100%); Abolishment of the activity of IL-8 (IL-8): complete arrest; Bound chemokines (at least): MIG (MIG [5]): highest binding level and MIG |
| MCP-1, | Eotaxin | IL-8 | SIPSHSIHSAKA [BKT-P2] | Level of Antagonistic Effect (MIG [4]): ++ (++ 50%); Reduction of the activity of MIG (MIG [4]): about 50% |
|  |  |  | SQTLPYSNAPSP [BKT-P1] | Binding to the various chemokines [3]: bind specifically to various chemokines; also recorded: specifically to more than one chemokine; Bound chemokines (at least): SDF-1α (SDF-1α): bind and found to bind SDF-1α |
|  | Eotaxin |  | SVQTRPLFHSHF [BKT-P34] |  |
| MCP-1 |  |  | TRLVPSRYYHHP [BKT-P47] |  |
| MCP-1 |  |  | VHTSLLQKHPLP [BKT-P26] |  |
| MCP-1 |  |  | WSAHIVPYSHKP [BKT-P52] |  |
| MCP-1 |  |  | YATQHNWRLKHE [BKT-P53] |  |
